Test results published in publication PMC8253215.

Assays:
[1] = biological target: rat luteinizing hormone/chorionic gonadotropin receptor (rLH/CGR) (rat) (UniProt P16235)
[2] = biological target: rat follicle-stimulating hormone receptor (rFSHR) (rat) (UniProt P20395)
UniProt P20395, sequence (P20395 18-692): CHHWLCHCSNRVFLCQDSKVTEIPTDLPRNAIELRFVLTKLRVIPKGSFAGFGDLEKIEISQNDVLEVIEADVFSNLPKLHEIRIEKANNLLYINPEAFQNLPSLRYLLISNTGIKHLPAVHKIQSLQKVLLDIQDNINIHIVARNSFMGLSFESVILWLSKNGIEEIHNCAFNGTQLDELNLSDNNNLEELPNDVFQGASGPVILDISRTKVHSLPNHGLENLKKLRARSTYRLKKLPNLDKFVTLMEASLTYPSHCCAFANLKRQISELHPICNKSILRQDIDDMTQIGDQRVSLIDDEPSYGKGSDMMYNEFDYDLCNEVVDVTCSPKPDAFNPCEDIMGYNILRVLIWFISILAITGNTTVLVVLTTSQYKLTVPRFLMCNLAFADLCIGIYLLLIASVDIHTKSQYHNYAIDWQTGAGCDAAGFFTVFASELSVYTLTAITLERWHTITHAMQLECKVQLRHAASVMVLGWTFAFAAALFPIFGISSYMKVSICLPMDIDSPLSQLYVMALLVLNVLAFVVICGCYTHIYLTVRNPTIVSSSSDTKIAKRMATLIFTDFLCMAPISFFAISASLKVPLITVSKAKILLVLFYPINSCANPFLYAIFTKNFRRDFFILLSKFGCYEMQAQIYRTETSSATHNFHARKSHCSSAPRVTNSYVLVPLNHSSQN

UniProt P16235, sequence (P16235 27-700): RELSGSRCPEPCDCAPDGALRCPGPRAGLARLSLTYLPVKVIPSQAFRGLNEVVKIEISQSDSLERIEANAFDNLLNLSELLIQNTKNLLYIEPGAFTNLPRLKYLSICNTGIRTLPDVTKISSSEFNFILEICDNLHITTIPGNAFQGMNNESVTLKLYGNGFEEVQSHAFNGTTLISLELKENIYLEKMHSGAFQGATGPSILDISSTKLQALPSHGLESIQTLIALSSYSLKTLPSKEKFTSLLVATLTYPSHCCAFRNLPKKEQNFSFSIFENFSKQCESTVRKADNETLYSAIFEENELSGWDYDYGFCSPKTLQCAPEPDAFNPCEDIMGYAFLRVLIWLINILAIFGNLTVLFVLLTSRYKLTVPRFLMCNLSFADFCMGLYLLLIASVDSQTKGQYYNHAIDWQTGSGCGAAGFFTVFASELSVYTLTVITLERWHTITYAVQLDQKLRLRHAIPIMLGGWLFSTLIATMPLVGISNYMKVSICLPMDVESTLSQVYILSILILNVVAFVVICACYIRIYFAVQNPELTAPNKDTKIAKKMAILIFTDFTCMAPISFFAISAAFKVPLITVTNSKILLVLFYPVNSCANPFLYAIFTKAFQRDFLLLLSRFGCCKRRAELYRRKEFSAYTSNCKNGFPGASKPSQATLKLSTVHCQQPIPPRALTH

Substance | EC50 of cAMP response (HTRF) in CHO-K1 cells expressing rLH/CGR [1] [ng/mL] | EC50 of cAMP response (HTRF) in CHO-K1 cells expressing rFSHR [2] [ng/mL]
rec-eCGβF103P;R104K/α (from UniProt P08751 21-169; P01220 25-120) (ligand) | 0.037 | 6.4
rec-eCGβV102G;F103P/α (from UniProt P08751 21-169; P01220 25-120) (ligand) | 0.016 | 1.75
rec-eCGβV102G;F103P;R104K/α (from UniProt P08751 21-169; P01220 25-120) (ligand) | 0.013 | 2.86

More lines, now with the values ahead:

EC50 of cAMP response (HTRF) in CHO-K1 cells expressing rLH/CGR [1] [ng/mL] | EC50 of cAMP response (HTRF) in CHO-K1 cells expressing rFSHR [2] [ng/mL] | Substance
0.018 | 0.99 | rec-eCGβF103P/α (from UniProt P08751 21-169; P01220 25-120) (ligand)
0.033 | 0.98 | rec-eCGβR104K/α (from UniProt P08751 21-169; P01220 25-120) (ligand)
0.015 | 0.79 | rec-eCGβV102G/α (from UniProt P08751 21-169; P01220 25-120) (ligand)
 | 0.16 | single-chain recombinant equine chorionic gonadotropin β/α, wild type (rec-eCGβ/α-wt) (from UniProt P08751 21-169; P01220 25-120) (ligand)
0.038 | 5.45 | rec-eCGβV102G;R104K/α (from UniProt P08751 21-169; P01220 25-120) (ligand)
